Laboratory results from patent publication US20220041723A1 (published 2022).
Read-outs that look alike come from different tables or passages of the source.

Assays:
[1] = molecular target: T1, human CTLA-4 expressed on cells (293T cells stably transfected with human CTLA-4); in vitro-activated human … (human, UniProt P16410 36-223); test: FACS
[2] = molecular target: T1, human CTLA-4 expressed on cells (293T …); test: FACS; remark: listed apart in the source

Binder | EC50 [1] [nM] | EC50 [2] [nM]
5-B07 (antibody, V domains shown) VH: EVQLLESGGGLVQPGGSLRLSCAASGFTFSSYSMNWVRQAPGKGLEWVSAISGSGGSTYYADSVKGRFTISRDNSKNTLYLQMNSLRAEDTAVYYCARDRVEMNQWLADWGQGTLVTVSS VL: not shown | 0.15 | –
4-E03 (antibody, V domains shown) VH: EVQLLESGGGLVQPGGSLRLSCAASGFTFSDYYMSWVRQAPGKGLEWVSGISWSSRDKGYADSVKGRFTISRDNSKNTLYLQMNSLRAEDTAVYYCTTDLARYWGQGTLVTVSS VL: QSVLTQPPSASGTPGQRVTISCTGSSSNIGAGYDVHWYQQLPGTAPKLLIYGNDNRPSGVPDRFSGSKSGTSASLAISGLRSEDEADYYCAVWDDSLNGVVFGGGTKLTVLG | 0.13 | –
2-C06 (antibody, V domains shown) VH: EVQLLESGGGLVQPGGSLRLSCAASGFTFSSYAMSWVRQAPGKGLEWVSGISGSGGYIHYADSVKGRFTISRDNSKNTLYLQMNSLRAEDTAVYYCATYSSGLHDAFDIWGQGTLVTVSS VL: QSVLTQPPSASGTPGQRVTISCTGSSSNIGAGYDVHWYQQLPGTAPKLLIYDNNKRPSGVPDRFSGSKSGTSASLAISGLRSEDEADYYCAAWDDSLNGWVFGGGTKLTVLG | 0.1 | –
2-F09 (antibody, V domains shown) VH: EVQLLESGGGLVQPGGSLRLSCAASGFTFKAYSMSWIRQAPGKGLEWVSGISNTGGSTDFADSVKGRFTISRDNSKNTLYLQMNSLRAEDTAMYYCARLGYSGYDDRGMDVWGQGTLVTVSS VL: QSVLTQPPSASGTPGQRVTISCSGSSSNIGSNYVYWYQQLPGTAPKLLIYGNSNRPSGVPDRFSGSKSGTSASLAISGLRSEDEADYYCQSYDSSLSGPVVFGGGTKLTVLG | – | 0.19
